[ ]: non-standard residue; d: D form.

Here are results for one molecule from article PMC11986143 (Nature Communications, 2025).

The experiment has as its target integrin αvβ3 on bEnd.3 vesicles (mouse (endogenous in bEnd.3), UniProt P43406 31-1044; O54890 26-787). Description: SPR.

integrin αvβ3 on bEnd.3 vesicles, sequence (P43406 31-1044, chain 1 of 2): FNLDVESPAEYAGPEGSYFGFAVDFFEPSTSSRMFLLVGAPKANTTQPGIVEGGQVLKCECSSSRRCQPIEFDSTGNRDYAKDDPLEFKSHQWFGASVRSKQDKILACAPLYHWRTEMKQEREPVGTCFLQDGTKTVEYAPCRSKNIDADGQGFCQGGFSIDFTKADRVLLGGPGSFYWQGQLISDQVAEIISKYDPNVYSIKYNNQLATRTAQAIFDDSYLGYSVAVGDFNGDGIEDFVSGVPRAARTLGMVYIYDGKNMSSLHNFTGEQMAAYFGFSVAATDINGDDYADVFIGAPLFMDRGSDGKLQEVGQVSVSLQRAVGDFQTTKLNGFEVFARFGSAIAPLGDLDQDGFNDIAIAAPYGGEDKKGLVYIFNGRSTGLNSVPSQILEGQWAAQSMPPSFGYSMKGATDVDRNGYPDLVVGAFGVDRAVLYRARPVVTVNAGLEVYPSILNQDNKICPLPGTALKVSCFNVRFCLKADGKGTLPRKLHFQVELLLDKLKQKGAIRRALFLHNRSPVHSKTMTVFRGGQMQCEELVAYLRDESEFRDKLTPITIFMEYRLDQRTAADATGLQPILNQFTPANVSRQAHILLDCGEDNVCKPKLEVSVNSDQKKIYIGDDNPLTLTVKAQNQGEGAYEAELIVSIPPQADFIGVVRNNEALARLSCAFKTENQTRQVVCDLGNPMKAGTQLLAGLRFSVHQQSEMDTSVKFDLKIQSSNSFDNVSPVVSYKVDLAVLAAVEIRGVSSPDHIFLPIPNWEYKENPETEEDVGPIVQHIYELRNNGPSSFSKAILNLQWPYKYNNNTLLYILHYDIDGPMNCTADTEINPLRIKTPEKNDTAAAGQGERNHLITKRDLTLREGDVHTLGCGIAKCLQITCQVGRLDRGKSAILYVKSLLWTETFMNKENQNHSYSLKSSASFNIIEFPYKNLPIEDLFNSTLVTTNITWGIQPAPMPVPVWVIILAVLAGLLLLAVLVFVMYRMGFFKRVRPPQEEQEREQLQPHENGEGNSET
integrin αvβ3 on bEnd.3 vesicles, sequence (O54890 26-787, chain 2 of 2): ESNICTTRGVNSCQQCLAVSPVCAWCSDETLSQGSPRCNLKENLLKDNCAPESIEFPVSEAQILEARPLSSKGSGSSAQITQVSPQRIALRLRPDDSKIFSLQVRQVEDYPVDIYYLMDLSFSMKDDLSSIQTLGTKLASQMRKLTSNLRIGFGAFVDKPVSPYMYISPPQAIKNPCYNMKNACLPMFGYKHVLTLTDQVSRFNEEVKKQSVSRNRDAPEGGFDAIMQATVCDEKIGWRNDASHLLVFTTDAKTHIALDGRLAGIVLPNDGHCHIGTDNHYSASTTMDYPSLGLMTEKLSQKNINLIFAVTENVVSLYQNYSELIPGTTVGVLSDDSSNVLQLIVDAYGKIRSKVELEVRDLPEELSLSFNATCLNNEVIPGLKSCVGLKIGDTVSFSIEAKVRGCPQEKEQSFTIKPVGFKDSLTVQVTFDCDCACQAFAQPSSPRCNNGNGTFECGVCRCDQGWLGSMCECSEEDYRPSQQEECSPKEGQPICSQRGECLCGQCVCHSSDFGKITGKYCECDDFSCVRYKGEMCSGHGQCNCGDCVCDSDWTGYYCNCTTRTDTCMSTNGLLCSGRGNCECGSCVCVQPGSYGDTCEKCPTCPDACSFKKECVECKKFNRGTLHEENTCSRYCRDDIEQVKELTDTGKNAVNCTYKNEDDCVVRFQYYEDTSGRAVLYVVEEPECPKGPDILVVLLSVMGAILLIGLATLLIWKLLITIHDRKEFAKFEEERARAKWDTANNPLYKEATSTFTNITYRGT

In general, Kd refers to the free concentration of one partner at which half of the binding sites on the other are occupied at equilibrium, for simple one-to-one binding. A high value points to weaker binding. Turning to cyclo(RGD[dY]K) [c(RGDyK) peptide], the Kd is 17.1 µM.
